The target in test [1] is T1, human Exportin 1 (human, UniProt O14980 1-1071).
T1 construct: Exportin 1 (Xpo1/CRM1), human; also called hsXpo1; Xpo1; source: bacterial expression construct, purified (native Ni(II) chelate chromatography)
The test is described as follows: NTR-dependent recruitment of a fluorescent cargo into FG phase particles (confocal laser-scanning microscopy); prf.GLFG_(52x12) phase challenged with import cargo (IBB-EGFP; IBB-MBP-GFP-M9) or export cargo (NES-EGFP + RanQ69L) in the absence or presence of the corresponding NTRs (Impβ, transportin, Xpo1). Particulars: both partners purified.

Test [2] concerns the target T2, Alexa Fluor 488-labeled rat NTF2 (rat, UniProt P61972 1-127, Alexa Fluor 488 label (site not stated)).
T2 construct: nuclear transport factor 2 (NTF2), rat, 30-kDa nuclear transport receptor (dimer); The methods say that most NTRs were His-tagged fusions whose tags were cleaved off; also called Alexa488-labeled NTF2; source: bacterial expression construct, purified (native Ni(II) chelate chromatography)
Description: partitioning into FG phase particles (FG particle permeation assay, confocal laser-scanning microscopy); FG domain diluted out of 4 M guanidinium hydrochloride into 50 mM Tris/HCl pH 7.5, 150 mM NaCl, 5 mM DTT, 5 µM FG domain; fluorescent probe in the buffer (mCherry 5 µM, probes with partition coefficient ≥2 at 0.75 µM); particles sedimented 60 min; ratio of fluorescence inside to outside the particles; 21 °C. As to conditions: both partners purified.

T2 sequence (P61972 whole entry, the tested form may be a part): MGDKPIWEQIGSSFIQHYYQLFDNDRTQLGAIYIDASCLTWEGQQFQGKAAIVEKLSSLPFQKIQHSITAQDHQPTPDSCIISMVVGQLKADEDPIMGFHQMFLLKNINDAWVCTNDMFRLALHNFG
T1 sequence (O14980 whole entry): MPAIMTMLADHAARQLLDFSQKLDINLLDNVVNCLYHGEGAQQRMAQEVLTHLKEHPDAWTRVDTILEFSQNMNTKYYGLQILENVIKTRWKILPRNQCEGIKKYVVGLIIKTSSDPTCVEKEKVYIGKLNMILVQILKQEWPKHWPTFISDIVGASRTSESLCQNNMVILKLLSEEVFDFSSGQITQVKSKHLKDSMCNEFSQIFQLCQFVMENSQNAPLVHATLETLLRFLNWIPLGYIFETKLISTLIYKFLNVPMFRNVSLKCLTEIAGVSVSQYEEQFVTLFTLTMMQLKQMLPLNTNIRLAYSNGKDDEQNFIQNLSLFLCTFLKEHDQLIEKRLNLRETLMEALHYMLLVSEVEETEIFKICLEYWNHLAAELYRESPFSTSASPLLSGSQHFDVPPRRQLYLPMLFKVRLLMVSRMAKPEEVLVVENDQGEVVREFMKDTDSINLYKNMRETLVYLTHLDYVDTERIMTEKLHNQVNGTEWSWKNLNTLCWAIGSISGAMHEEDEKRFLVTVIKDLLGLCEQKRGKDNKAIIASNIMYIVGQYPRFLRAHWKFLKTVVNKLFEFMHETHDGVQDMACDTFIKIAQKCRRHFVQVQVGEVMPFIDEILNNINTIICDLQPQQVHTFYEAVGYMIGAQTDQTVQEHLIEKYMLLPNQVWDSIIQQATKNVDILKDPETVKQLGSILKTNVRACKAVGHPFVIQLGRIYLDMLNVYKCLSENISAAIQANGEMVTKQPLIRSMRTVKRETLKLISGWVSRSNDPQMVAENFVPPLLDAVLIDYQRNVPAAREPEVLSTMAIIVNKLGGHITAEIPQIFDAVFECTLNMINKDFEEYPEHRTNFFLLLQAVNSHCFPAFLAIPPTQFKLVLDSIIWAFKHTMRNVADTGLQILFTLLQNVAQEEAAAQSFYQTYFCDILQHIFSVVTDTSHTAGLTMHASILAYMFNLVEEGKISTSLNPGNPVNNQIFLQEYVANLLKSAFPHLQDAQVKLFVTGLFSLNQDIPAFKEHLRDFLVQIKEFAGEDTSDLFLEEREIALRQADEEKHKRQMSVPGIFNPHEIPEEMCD

B1: NES(PKI)-EGFP (other)
chain: SNELALKLAGLDIN
modifications: PKI-type NES core with short flanks, mEGFP carrier left out; the exact construct (PKI01, pTG-A450) is not printed and may be an optimised NES variant
As to B1, the “fold stimulation of the cargo's entry into the prf.GLFG_(52x12) phase by Xpo1 (with RanQ69L)” value in test [1] was found to be 3500 fold.

B2: prf.GLFG_(52x12) (other)
chain: GGLFGGNTQPATGGLFGGNTQPATGGLFGGNTQPATGGLFGGNTQPATGGLFGGNTQPATGGLFGGNTQPATGGLFGGNTQPATGGLFGGNTQPATGGLFGGNTQPATGGLFGGNTQPATGGLFGGNTQPATGGLFGGNTQPATGGLFGGNTQPATGGLFGGNTQPATGGLFGGNTQPATGGLFGGNTQPATGGLFGGNTQPATGGLFGGNTQPATGGLFGGNTQPATGGLFGGNTQPATGGLFGGNTQPATGGLFGGNTQPATGGLFGGNTQPATGGLFGGNTQPATGGLFGGNTQPATGGLFGGNTQPATGGLFGGNTQPATGGLFGGNTQPATGGLFGGNTQPATGGLFGGNTQPATGGLFGGNTQPATGGLFGGNTQPATGGLFGGNTQPATGGLFGGNTQPATGGLFGGNTQPATGGLFGGNTQPATGGLFGGNTQPATGGLFGGNTQPATGGLFGGNTQPATGGLFGGNTQPATGGLFGGNTQPATGGLFGGNTQPATGGLFGGNTQPATGGLFGGNTQPATGGLFGGNTQPATGGLFGGNTQPATGGLFGGNTQPATGGLFGGNTQPATGGLFGGNTQPATGGLFGGNTQPATGGLFGGNTQPATGGLFGGNTQPATC
notes: C-terminal Cys residue fused for maleimide labelling; also called GLEBS-free, perfectly repeated FG variant; ultimately simplified FG domain
As to B2, the binding result in test [2] is given as “binds”.
